System: MS2 coat protein
Assay: apparent KD of MS2 coat protein; designed switch direction (-1 OFF switch, 1 ON switch): -1; higher = weaker reporter binding
Procedure, shortened: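 Each step of the titration lasted 0.8–1.5 h at the lowest concentration and 10–20 min at the highest. The protein, SNAP-549-labelled MS2 coat protein, went from 0.7 or 1.5 nM doubling to 3 µM over RNA switches transcribed on Illumina chips by stalled E. coli RNA polymerase. Normalised cluster fluorescence was curve-fitted, and the per-design median over clusters is given as apparent KD.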

[1] = input ligand: microRNA oligo, concentration not stated
[2] = Eterna round: R95, input ligand: FMN 200 uM
[3] = Eterna round: R95, input ligand: microRNA oligo, concentration not stated
[4] = Eterna round: R95, input ligand: none

Sequence: AGAUCUAGGACAGGAUAUACCGAUGGCUUCAUCGAAGAUGAAGCCAUCACAUGAGGAUCACCCAUGUAGAAGGGUCCUAGAUCA [Omei Exc(NG) 2Av9] (Eterna round: R96, puzzle: Exclusion NG 2)
- apparent KD of MS2 coat protein (input ligand: FMN 200 uM): 11.5 nM
- apparent KD of MS2 coat protein [1]: 9.95 nM
- apparent KD of MS2 coat protein (input ligand: none): 13.7 nM

Sequence: AGAUCUAGGACAGGAUAUAUGGAUGUCUUCAUCGAAGAUGAAGACAUUACAUGAGGAUCACCCAUGUAGAAGGGUCCUAGAUCA [Omei Exc(NG) 2Av3] (Eterna round: R96, puzzle: Exclusion NG 2)
- apparent KD of MS2 coat protein (input ligand: FMN 200 uM): 17.3 nM
- apparent KD of MS2 coat protein [1]: 17.5 nM
- apparent KD of MS2 coat protein (input ligand: none): 22.2 nM

Sequence: AGAUGGAUUGCUAGAAAACUAGUAAUUCAUCAAUCAAGCACAUGAGGAUCACCCAUGUCUUAGAGUACGUGAGUACA [JL gull wing 9] (Eterna round: R96, puzzle: Sensor v2, turn-off variant 2)
- apparent KD of MS2 coat protein (input ligand: FMN 200 uM): 12.8 nM
- apparent KD of MS2 coat protein [1]: 12.5 nM
- apparent KD of MS2 coat protein (input ligand: none): 16 nM

Sequence: AGAUGGCGAGGAUAUACAUGAGGAUCACCCAUGUGAGAGAUUAGAGUGAGGAAGAAAAGUAGAAGGCGCUGUCA [Mat - Exclusion 3 - Mod of Salish D18] (puzzle: Exclusion 3)
- apparent KD of MS2 coat protein [2]: 167 nM
- apparent KD of MS2 coat protein [3]: 98.4 nM
- apparent KD of MS2 coat protein [4]: 144 nM

Sequence: AGAUGUAGAUUCCGAUCCUACAUGAGGAUCACCCAUGUAGCUAGACGUGCGGGCGGCGCUCGUCGGACUACCAGUAG [salish99_TOv1_r3_096] (puzzle: Sensor v3, turn-off variant 1)
- apparent KD of MS2 coat protein [2]: 53.5 nM
- apparent KD of MS2 coat protein [3]: 69.8 nM
- apparent KD of MS2 coat protein [4]: 84.6 nM

Sequence: AGCAUGCUAGGAUAUACGGGACAUUAGGGUUCGUUGUGUGGACAUGAGGAUCACCCAUGUAGAAGGAGCGUGCA [Mat - Exclusion 2 - Mod of Hyphema - D91] (puzzle: Exclusion 2)
- apparent KD of MS2 coat protein [3]: 73.1 nM

Sequence: AGCCACAGAGGAUAUACAUACAUCCAGUAGUUGAGAAGACUACAUGAGGAUCACCCAUGUAGAAGGCUGUGGCA [Omei Ex2 BD B3] (Eterna round: R97, puzzle: Exclusion 2)
- apparent KD of MS2 coat protein (input ligand: FMN 200 uM): 95.5 nM
- apparent KD of MS2 coat protein (input ligand: none): 395 nM

Sequence: AGCCAGCUAGGAUAUUGCAGUUGUAACAUGAGGAUCACCCAUGUGAUAGGUGUUUAGCUCCAAGAAGGAGCGCGGC [Eronsoti] (puzzle: Exclusion 5)
- apparent KD of MS2 coat protein [2]: 88.7 nM
- apparent KD of MS2 coat protein [3]: 27.1 nM
- apparent KD of MS2 coat protein [4]: 28 nM

Sequence: AGCCAUGAAGGAUAUACAUGAGGAUCACCCAUGUUGCGGACAGGUUUGAUCGGCGUAGGUAGAAGGUCAAGUAG [Eternabot (L2) Solution 62] (Eterna round: R97, puzzle: Exclusion 3)
- apparent KD of MS2 coat protein (input ligand: FMN 200 uM): 28.2 nM
- apparent KD of MS2 coat protein (input ligand: none): 22.1 nM

Sequence: AGCCCUGCAGGAUAUGCCCGGGAUAACAUGAGGAUCACCCAUGUGACCGAUUGUUAUUCUGCAGAAGGGCAUGGGA [JL-EX5-4.17 ViennaUCT mod] (Eterna round: R97, puzzle: Exclusion 5)
- apparent KD of MS2 coat protein (input ligand: FMN 200 uM): 228 nM
- apparent KD of MS2 coat protein (input ligand: none): 235 nM

Sequence: AGCCCUGCAGGAUAUGCCCGGGAUAACAUGAGGAUCACCCAUGUGACCGGUUGUUAGACUGCAGAAGGGCAUGGGA [salish99_ex5_r4_302] (Eterna round: R97, puzzle: Exclusion 5)
- apparent KD of MS2 coat protein (input ligand: FMN 200 uM): 14.8 nM
- apparent KD of MS2 coat protein (input ligand: none): 12.2 nM

Sequence: AGCCCUUGUGUCAGGAUAUGCAUCCUUAAAGGACGGCAGAAGGGACAUGAGGAUCACCCAUGUAAAUAGAAAUU [Onatatge] (puzzle: Brourd's mod of Exclusion 4)
- apparent KD of MS2 coat protein [2]: 16.2 nM
- apparent KD of MS2 coat protein [3]: 84 nM
- apparent KD of MS2 coat protein [4]: 141 nM

Sequence: AGCCUCGCUGUUAGGAUAUGCAUGGAUAAGCUCCGGCAGAAGGGACAUGAGGAUCACCCAUGUAACGUAGUUUA [BmEX4 B.4] (Eterna round: R97, puzzle: Brourd's mod of Exclusion 4)
- apparent KD of MS2 coat protein (input ligand: FMN 200 uM): 31.8 nM
- apparent KD of MS2 coat protein (input ligand: none): 25.2 nM

Sequence: AGCGAGGAGACAGGAUAUGAGAAUAGAUAGAACUCAGAAGGGUCACAUGAGGAUCACCCAUGUAAAGUCUUGAGGCUGCGUGGU [Prohibition 8 - Jieux - Exclusion NG 1] (Eterna round: R96, puzzle: Exclusion NG 1)
- apparent KD of MS2 coat protein (input ligand: FMN 200 uM): 239 nM
- apparent KD of MS2 coat protein [1]: 84.3 nM
- apparent KD of MS2 coat protein (input ligand: none): 88.2 nM

Sequence: AGCGCCAUCGUGAGAUGGCGUAUUACAUGAGGAUCACCCAUGUAGGAUAUCGAUUGCUUUGCAGUCGAGAAGGACAUGUUCUUU [JL ENG3 3.80 Mod D] (Eterna round: R96, puzzle: Exclusion NG 3)
- apparent KD of MS2 coat protein (input ligand: FMN 200 uM): 27.1 nM
- apparent KD of MS2 coat protein [1]: 19.3 nM
- apparent KD of MS2 coat protein (input ligand: none): 23.4 nM

Sequence: AGCGCCAUCGUGAGAUGGCGUAUUACAUGAGGAUCACCCAUGUAGGAUAUCGAUUGCUUUGCAGUCGAGAAGGGCAUGUCCUAG [JL ENG3 3.80 Mod H] (Eterna round: R96, puzzle: Exclusion NG 3)
- apparent KD of MS2 coat protein [1]: 25 nM

Sequence: AGCGCUUACGUAGGAUAUGCAUGAGGAUCACCCAUGCAACCACAUUUAACAUGAGGAUCACCCAUGUAGAAGGACGGGUGCGCA [pwkr exNG2 2xF5 1xFMN.2] (Eterna round: R96, puzzle: Exclusion NG 2)
- apparent KD of MS2 coat protein (input ligand: FMN 200 uM): 67.8 nM
- apparent KD of MS2 coat protein [1]: 20.4 nM
- apparent KD of MS2 coat protein (input ligand: none): 27.9 nM

Sequence: AGCGUGGAGACAGGAUAUGAGAAUAGAUAGAACUCAGAAGGGUCACAUGAGGAUCACCCAUGUAAAGUCUUGAGGAUGAGUGAU [Prohibition 4 - Jieux - Exclusion NG 1] (Eterna round: R96, puzzle: Exclusion NG 1)
- apparent KD of MS2 coat protein (input ligand: FMN 200 uM): 192 nM
- apparent KD of MS2 coat protein [1]: 57.7 nM
- apparent KD of MS2 coat protein (input ligand: none): 73.5 nM

Sequence: AGCUAGAUAGGAUAUGCCCGGGAUAACAUGAGGAUCACCCAUGUGGCCGAAUCAAGUCCAGCAGAAGGGUUUGGGA [Mod of ViennaUCT 11 - Jieux - Exclusion 5] (Eterna round: R97, puzzle: Exclusion 5)
- apparent KD of MS2 coat protein (input ligand: FMN 200 uM): 43.2 nM
- apparent KD of MS2 coat protein (input ligand: none): 34.8 nM

Sequence: AGCUAGGCAGGAUAUACAUGAGGAUCACCCAUGUAAAUUUUUCGUUUAACUUGAAUGUGUAGAAGGGCCAUAAA [Ex3 #51] (Eterna round: R97, puzzle: Exclusion 3)
- apparent KD of MS2 coat protein (input ligand: FMN 200 uM): 23.9 nM
- apparent KD of MS2 coat protein (input ligand: none): 22.4 nM

Sequence: AGCUGACAAGGAUAUACAUGAGGAUCACCCAUGUUGGUCAAGCGACGAUAGUCGCAAUGUAGAAGGUGUCAGCU [E3/8-C1] (Eterna round: R97, puzzle: Exclusion 3)
- apparent KD of MS2 coat protein (input ligand: FMN 200 uM): 1750 nM
- apparent KD of MS2 coat protein (input ligand: none): 341 nM

Sequence: AGCUGGAGAGGAUAUACGUAGGAAAAAAAAGUCUGAUCACUACAUGAGGAUCACCCAUGUAGAAGGCUCUGGCA [Ex2 Design 162: Sub-opt 26] (Eterna round: R96, puzzle: Exclusion 2)
- apparent KD of MS2 coat protein (input ligand: FMN 200 uM): 104 nM
- apparent KD of MS2 coat protein [1]: 16.5 nM
- apparent KD of MS2 coat protein (input ligand: none): 20.5 nM

Sequence: AGCUGUGGCCGAGGAUAUACACAUGAGGAUCACCCAUGUAGGCGCGGAUACGCGCUAAAAUAAAUGUAGAAGGCGGUCUCAGCA [Eli eng2 - 055] (Eterna round: R96, puzzle: Exclusion NG 2)
- apparent KD of MS2 coat protein (input ligand: FMN 200 uM): 7.06 nM
- apparent KD of MS2 coat protein [1]: 5 nM
- apparent KD of MS2 coat protein (input ligand: none): 11.8 nM

Sequence: AGCUGUGGCCGAGGAUAUCACAUGAGGAUCACCCAUGUACAUGAUUAGGCCUGGUAACAGGCUCGUGAGAAGGCGGUCUCAGCA [Eli eng2 - 010] (Eterna round: R96, puzzle: Exclusion NG 2)
- apparent KD of MS2 coat protein (input ligand: FMN 200 uM): 26.7 nM
- apparent KD of MS2 coat protein [1]: 31.1 nM
- apparent KD of MS2 coat protein (input ligand: none): 37.6 nM

Sequence: AGCUGUGGCCGAGGAUAUCACGAACCAUGGAAAACCAUGGAACUCACACAUGAGGAUCACCCAUGUGAGAAGGCGGUCUCAGCA [Eli eng2 - 021] (Eterna round: R96, puzzle: Exclusion NG 2)
- apparent KD of MS2 coat protein (input ligand: FMN 200 uM): 16.3 nM
- apparent KD of MS2 coat protein [1]: 8.68 nM
- apparent KD of MS2 coat protein (input ligand: none): 15.1 nM

Sequence: AGCUGUGGCCGAGGAUAUCUAAAACCUCAAAACGAAAUAUAAUCGAACAUGAGGAUCACCCAUGUAGAGAAGGCGGUCUCAGCA [Eli eng2 - 031] (Eterna round: R96, puzzle: Exclusion NG 2)
- apparent KD of MS2 coat protein [1]: 214 nM

Sequence: AGCUGUGGCCGAGGAUAUCUACAUGAGGAUCACCCAUGUAAAGGGUGUAUCGGGAAAACCUCGAUGGAGAAGGCGGUCUCAGCA [Eli eng2 - 047] (Eterna round: R96, puzzle: Exclusion NG 2)
- apparent KD of MS2 coat protein (input ligand: FMN 200 uM): 95.5 nM
- apparent KD of MS2 coat protein [1]: 45.3 nM
- apparent KD of MS2 coat protein (input ligand: none): 296 nM

Sequence: AGCUGUGGCCGAGGAUAUCUGUCCCAUAAAACCGAAAUAUAAUCGGACAUGAGGAUCACCCAUGUAGAGAAGGCGGUCUCAGCA [Eli eng2 - 098] (Eterna round: R96, puzzle: Exclusion NG 2)
- apparent KD of MS2 coat protein [1]: 31.3 nM

Sequence: AGCUUUUUGUUCGUCUUAUACAUGAGGAUCACCCAUGUAUUGGACCGCAUCGAUAGAUGUAGACCAAGAAGCAUGGG [Omdei Mir OFFv1 C5] (Eterna round: R97, puzzle: Sensor, turn-off variant 1)
- apparent KD of MS2 coat protein (input ligand: FMN 200 uM): 50.6 nM
- apparent KD of MS2 coat protein (input ligand: none): 48.2 nM

Source: the supplement of paper PMC9170038
